Measurements from patent US20210155689A1 (SHANGHAI PHARMAEXPLORER, published 2021).
Residue numbers refer to the chain shown, from its start. Primed or numbered codes have the meaning given here. No end group written: not given here. Biotin′ = biotin label at the C-terminus

Experiments:
[1] = molecular target: LAG-3-hFc protein (human LAG-3 extracellular region with hFc tag) (human) (UniProt P18627); experiment: FACS, inhibition of LAG-3-hFc binding to MHC II on Raji cells, antibody 22.222 nM
[2] = molecular target: LAG-3-hFc protein (human LAG-3 extracellular region with hFc tag) (human) (UniProt P18627); experiment: ELISA, inhibition of LSECtin-His binding to coated LAG-3-hFc, antibody 0.013 nM, replicate 1
[3] = molecular target: monkey LAG-3 on cells (HEK293-cLAG-3 stable cell line) (monkey); experiment: FACS, HEK293-cLAG-3, antibody 0.013 nM
[4] = molecular target: human LAG-3 on cells (HEK293-hLAG-3 stable cell line) (human) (UniProt P18627); experiment: cell-based or functional assay
[5] = molecular target: LAG-3-hFc protein (human LAG-3 extracellular region with hFc tag) (human) (UniProt P18627); experiment: FACS, inhibition of LAG-3-hFc binding to MHC II on Raji cells, antibody 66.667 nM
[6] = molecular target: LAG-3-hFc protein (human LAG-3 extracellular region with hFc tag) (human) (UniProt P18627); experiment: FACS, inhibition of LAG-3-hFc binding to MHC II on Raji cells, antibody 0.000 nM
[7] = molecular target: human LAG-3 on cells (HEK293-hLAG-3 stable cell line) (human) (UniProt P18627); experiment: FACS, HEK293-hLAG-3, antibody 0 nM
[8] = molecular target: LAG-3-hFc protein (human LAG-3 extracellular region with hFc tag) (human) (UniProt P18627); experiment: ELISA, inhibition of LSECtin-His binding to coated LAG-3-hFc, antibody 0.064 nM, replicate 2
[9] = molecular target: human LAG-3 on cells (HEK293-hLAG-3 stable cell line) (human) (UniProt P18627); experiment: FACS, HEK293-hLAG-3, antibody 8 nM
[10] = molecular target: LAG-3-hFc protein (human LAG-3 extracellular region with hFc tag) (human) (UniProt P18627); experiment: FACS, inhibition of LAG-3-hFc binding to MHC II on Raji cells, antibody 200.000 nM
[11] = molecular target: monkey LAG-3 on cells (HEK293-cLAG-3 stable cell line) (monkey); experiment: FACS, HEK293-cLAG-3, antibody 0.000 nM
[12] = molecular target: T1, human LAG-3 on cells (HEK293-hLAG-3 stable cell line) (human, UniProt P18627 23-525); experiment: FACS, HEK293-hLAG-3, antibody 40 nM
T1 sequence: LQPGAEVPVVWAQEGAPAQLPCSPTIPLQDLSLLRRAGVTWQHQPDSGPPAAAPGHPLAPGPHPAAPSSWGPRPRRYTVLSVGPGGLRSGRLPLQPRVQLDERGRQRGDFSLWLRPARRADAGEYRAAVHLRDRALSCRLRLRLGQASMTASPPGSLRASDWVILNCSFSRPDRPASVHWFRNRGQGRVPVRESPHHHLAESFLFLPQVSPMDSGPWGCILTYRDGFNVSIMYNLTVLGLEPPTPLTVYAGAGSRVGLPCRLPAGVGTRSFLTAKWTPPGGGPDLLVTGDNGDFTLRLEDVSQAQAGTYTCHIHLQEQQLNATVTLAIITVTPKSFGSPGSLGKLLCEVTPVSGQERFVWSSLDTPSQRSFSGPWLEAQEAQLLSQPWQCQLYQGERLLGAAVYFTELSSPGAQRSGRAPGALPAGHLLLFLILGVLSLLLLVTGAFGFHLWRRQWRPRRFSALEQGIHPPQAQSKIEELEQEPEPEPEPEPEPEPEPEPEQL
Source text: A. The binding of antibodies to LAG-3 expressing cells was detected by Flow cytometry (FACS), wherein the method was according to that of Example 5.

[13] = molecular target: T2, HPAAPSSWGPRPK-Biotin (human); experiment: peptide scanning ELISA, biotin peptide on streptavidin
T2 construct: Overlapping peptide of the outer loop of human LAG-3; also called LAG-3 Extra cyclic peptide
T2 peptide: HPAAPSSWGPRPK-{Biotin′}
Experimental: (§1) Fifteen overlapping peptides including the full length of the outer loop sequence were prepared and biotin was coupled to each C-terminus. Enzyme-linked immunosorbent assay (ELISA) was used to detect the binding of antibodies to these peptides. Streptavidin (sigma, Cat #M5432) was diluted with PBS to a final concentration of 1.0 μg/ml, and then added as 100 μl per well to a 96-well ELISA plate. The plate was sealed with plastic film and incubated overnight at 4° C. The plate was washed 2 times with the plate washing solution (PBS+0.01% Tween20) on the next day, and added with the blocking solution (PBS+0.01% Tween20+1% BSA) and blocked at room temperature for 1-2 hours. The blocking solution was poured off, and biotinylated peptides was added to a final concentration of 1 ug/ml, as 100 ul per well to the 96-well ELISA plate, incubated at 37° C. for 1-2 hours, then washed with plate washing solution (PBS+0.01% Tween20)2-3 times. Then the antibody samples to be tested were incubated as 100 μl per well at 37° C. for 1-2 hours, and then the plate was washed 2-3 times with a plate washing solution (PBS+0.01% Tween20). HRP (horseradish peroxidase) labeled secondary antibody was added, and the plate was incubated at 37° C. for 1-2 hours, and washed 2-3 times with a plate washing solution (PBS+0.01% Tween20). 100 μl of TMB substrate was added to each well. After incubated at room temperature for 15-30 minutes, the plate was added with 100 μl of stop solution (1.0N HCl) to each well.

[14] = molecular target: T3, PHPAAPSSWGPRK-Biotin (human); experiment: as above
T3 construct: Overlapping peptide of the outer loop of human LAG-3; also called LAG-3 Extra cyclic peptide
T3 peptide: PHPAAPSSWGPRK-{Biotin′}
Experimental: as §1

[15] = molecular target: T1, human LAG-3 on cells (HEK293-hLAG-3 …); experiment: FACS, HEK293-hLAG-3, antibody 8 nM

monkey LAG-3 on cells (HEK293-cLAG-3 stable cell line) (monkey), sequence (P18627 other isoform, or with tags, fused parts or gaps limits assumed): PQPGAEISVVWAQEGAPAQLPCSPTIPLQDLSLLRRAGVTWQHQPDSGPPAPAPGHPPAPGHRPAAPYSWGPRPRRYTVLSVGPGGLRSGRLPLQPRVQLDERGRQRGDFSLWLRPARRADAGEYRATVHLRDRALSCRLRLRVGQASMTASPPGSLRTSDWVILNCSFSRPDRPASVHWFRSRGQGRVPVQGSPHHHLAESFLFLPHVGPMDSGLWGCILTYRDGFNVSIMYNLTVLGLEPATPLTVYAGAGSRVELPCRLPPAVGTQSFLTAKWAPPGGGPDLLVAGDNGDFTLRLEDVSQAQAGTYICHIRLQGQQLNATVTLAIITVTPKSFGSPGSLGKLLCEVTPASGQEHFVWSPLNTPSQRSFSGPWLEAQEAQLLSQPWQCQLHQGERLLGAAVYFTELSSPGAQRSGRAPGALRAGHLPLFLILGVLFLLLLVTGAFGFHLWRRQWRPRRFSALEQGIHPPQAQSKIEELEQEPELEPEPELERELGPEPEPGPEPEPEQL

hIgG control (antibody)
Inhibition rate (%) [1]: 19.7% | Inhibition rate (%) [2]: -12.9% | Mean fluorescence intensity [3]: 2.87 | IL-2 production, SEB-dependent PBMC stimulation test, 0.0032 ug/ml, N = 1 [4]: 1620 pg/mL | IL-2 production, SEB-dependent PBMC stimulation test, 0.0032 ug/ml, N = 2 [4]: 1590 pg/mL | IL-2 production, SEB-dependent PBMC stimulation test, 0.016 ug/ml, N = 1 [4]: 1220 pg/mL | IL-2 production, SEB-dependent PBMC stimulation test, 0.016 ug/ml, N = 2 [4]: 1660 pg/mL | IL-2 production, SEB-dependent PBMC stimulation test, 0.08 ug/ml, N = 1 [4]: 1020 pg/mL | IL-2 production, SEB-dependent PBMC stimulation test, 0.08 ug/ml, N = 2 [4]: 1650 pg/mL | IL-2 production, SEB-dependent PBMC stimulation test, 0.4 ug/ml, N = 1 [4]: 1060 pg/mL | IL-2 production, SEB-dependent PBMC stimulation test, 0.4 ug/ml, N = 2 [4]: 1680 pg/mL | IL-2 production, SEB-dependent PBMC stimulation test, 2 ug/ml, N = 1 [4]: 1130 pg/mL | IL-2 production, SEB-dependent PBMC stimulation test, 2 ug/ml, N = 2 [4]: 1630 pg/mL | IL-2 production, SEB-dependent PBMC stimulation test, 10 ug/ml, N = 1 [4]: 1280 pg/mL | IL-2 production, SEB-dependent PBMC stimulation test, 10 ug/ml, N = 2 [4]: 1490 pg/mL | IL-2 production, antigen-specific T lymphocyte stimulation test, 0.016 ug/ml, N = 1 [4]: 336 pg/mL | IL-2 production, antigen-specific T lymphocyte stimulation test, 0.016 ug/ml, N = 2 [4]: 298 pg/mL | IL-2 production, antigen-specific T lymphocyte stimulation test, 0.08 ug/ml, N = 1 [4]: 286 pg/mL | IL-2 production, antigen-specific T lymphocyte stimulation test, 0.08 ug/ml, N = 2 [4]: 282 pg/mL | IL-2 production, antigen-specific T lymphocyte stimulation test, 0.4 ug/ml, N = 1 [4]: 322 pg/mL | IL-2 production, antigen-specific T lymphocyte stimulation test, 0.4 ug/ml, N = 2 [4]: 286 pg/mL | IL-2 production, antigen-specific T lymphocyte stimulation test, 2 ug/ml, N = 1 [4]: 382 pg/mL | IL-2 production, antigen-specific T lymphocyte stimulation test, 2 ug/ml, N = 2 [4]: 317 pg/mL | IL-2 production, antigen-specific T lymphocyte stimulation test, 10 ug/ml, N = 1 [4]: 338 pg/mL | IL-2 production, antigen-specific T lymphocyte stimulation test, 10 ug/ml, N = 2 [4]: 277 pg/mL | Inhibition rate (%) [5]: 12.1% | Inhibition rate (%) [6]: 17.7% | Mean fluorescence intensity [7]: 4 | Inhibition rate (%) [8]: -11.2% | Mean fluorescence intensity [9]: 4 | Inhibition rate (%) [10]: 12.3% | Mean fluorescence intensity [11]: 2.86

B1: 405B8H3 mouse-human chimeric antibody (antibody, V domains shown)
VH: QVQLQQSGAELVRPGASVTLSCKASGYTFTDYEMHWVKQTPVHGLEWIGATDPETGNSAYNQKFKGKAIMTADKSSSTAYMELRSLTSEDSAVYYCISTGWNDWGQGTSLTVSS
VL: DIKMTQSPSSMYASLGERVTITCKASQDINSYLSWFQQKPGKSPKTLIYRADRLLDGVPSRFSGSGSGQDYSLTISSLEYGDMGIYYCLQYDEFPYTFGGGTKLEIK
notes: also called mAb103-405B8H3
Mean fluorescence intensity [12]: 266

B2: 105F1E10 (mouse antibody purified from hybridoma) (antibody, V domains shown)
VH: EVQLQQSGPELVKPGASVKMSCRASGYTFTDFKMHWMKQSHGKSLEWIGYIAPNNGGTAYNQKFRGKATLTVNESSNTAYMELRSLTSEDSAVYYCVDWDDVDYWGQGTTLTVSS
VL: B1 VL with P40S, D52N, L55V, G81E, D92V, Y96L, G100A, I106L
notes: also called mAb009-105F1E10
binding result [13]: binds | binding result [14]: binds

B3: 556F6B8 mouse-human chimeric antibody (antibody, V domains shown)
VH: RVQLKQSGPGLVQPSQSLSITCTVSGFSLIKYGVHWVRQSPGEGLEWLGVIWRGGITDYNAAFMSRLSITKDNSKSQVFFKMNSLQADDTAIYYCAKWDGPLAMDYWGQGTSVTVSS
VL: DIVMTQSHKFLSTSVGDRVSITCKASQDVGTTVAWYQQKPGQSPKLLIYWASTRHTGVPDRFTGSGSGTDFTLTISNVQSEDLADYFCQQYSSYPYTFGGGTKLEIK
notes: also called mAb123-556F6B8; 556F8B8
Mean fluorescence intensity [15]: 90
